Where no end group is shown, it is not given here.
Each binder was assayed against GST-KIX (assay: fluorescence polarization).
GST-KIX, sequence (P45481 586-665): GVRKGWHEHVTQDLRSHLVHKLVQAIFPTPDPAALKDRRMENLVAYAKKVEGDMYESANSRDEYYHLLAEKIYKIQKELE

Row | Binder | Kd [µM]
1 | GMSRVTPGGDDAPVRRLSFFYILRDLYLDAPC(acetamidofluorescein) (designed binder, also: phosphorylated, site not given here) [phosphorylated PPKID2] | 0.28
2 | GMSRVTPGGDDAPVRRLSFFYILRDLYLDAPC(acetamidofluorescein) (designed binder) [unphosphorylated PPKID2] | 7.6
3 | GASPHTSSGDDAPVRRLSFFDILLDLYLDAPC(acetamidofluorescein) (designed binder) [unphosphorylated PPKID3] | 0.681
4 | GASDMTYWGDDAPVRRLSFFYILLDLYLDAPC(acetamidofluorescein) (designed binder, also: phosphorylated, site not given here) [phosphorylated PPKID1] | 0.031
5 | GASPHTSSGDDAPVRRLSFFDILLDLYLDAPC(acetamidofluorescein) (designed binder, also: phosphorylated, site not given here) [phosphorylated PPKID3] | 0.073
